{"source": "patent US20250195679A1", "about": "“ANTIBODY-DRUG CONJUGATE AND USE THEREOF” (SHANGHAI HUAOTA BIOPHARMACEUTICAL CO., LTD., priority 2022, published 2025)", "molecules": {"B1": {"name": "Antibody-drug conjugate 1: 900698 antibody cysteine-conjugated to SN-38 via Mc-VC-PAB-DMEDA-PEG linker, DAR about 7.8 (conjugate)", "VH": "QVQLVESGGGLVKPGGSLRLSCAASGFTFSKYAMSWIRQAPGKGLEWVAEISSGGGYINYADSVKGRFTISRDNAKNSLYLQMNSLRAEDTAVYYCARAIYYYGSSYNYYAMDYWGQGTTVTVSS", "VL": "DIQMTQSPSSLSASVGDRVTITCRASQDVGTAEAWYQQKPGKAPKLLIYWASTRHTGVPSRFSGSGSGTDFTLTISSLQPEDFATYYCQQYSSYPLTFGQGTKLEIK"}, "B2": {"name": "900698: anti-CD73 antibody, VH SEQ ID NO: 35, VL SEQ ID NO: 34 (antibody, V domains shown)", "VH": "B1 VH", "VL": "B1 VL", "modifications": "900696, 900698 (VH); 900695, 900698 (VL)"}, "B3": {"name": "Antibody-drug conjugate 2: 900698 antibody cysteine-conjugated to SN-38 via MP2-VC-PAB-DMEDA-PEG linker, DAR about 7.8 (conjugate)", "VH": "B1 VH", "VL": "B1 VL"}}, "key": {"MCF-7 cells": {"system": "MCF-7 cells", "test": "Killing of tumor cells not expressing CD73 (CellTiter-Glo)", "assay_type": "cell-based", "details": "cells not expressing CD73, 5 days, FIG. 5", "experimental": "The specific procedures were as follows: MDA-MB-231 cells and MCF-7 cells were prepared into cell suspensions at densities of 8E4 cells/mL and 7.5E5 cells/mL, respectively, which were then each added onto a 96-well cell culture plate at 100 μL per well. The 96-well cell culture plate was sealed with liquid and then incubated in an incubator at 37° C. with 5% CO2 for 6 h. With an assay medium, the antibody-drug conjugate 1, the antibody-drug conjugate 2, and the 900698 naked antibody were each diluted to 400 μg/mL and then subjected to a 2-fold dilution to give 8 concentrations, resulting in a total of 9 concentrations. The same dilution procedure was performed for the Buffer solution as for the antibody-drug conjugate 1. The gradient dilution solutions were each added at 50 μL/well to the 96-well cell culture plate after the above incubation was completed. Each sample well was then supplemented with 50 μL of the corresponding assay medium. The 96-well cell culture plate was further incubated in an incubator at 37° C. with 5% CO2 for another 5 days. After the incubation was completed, the 96-well plate was removed from the incubator, 100 μL of culture medium was aspirated from each well, and then the equilibrated Celltiter-Glo Luminescent Cell Viability Assay reagent (Promega, #G7573) was added at 100 μL/well. After shaking for reaction in the dark at room temperature for 10 min, 100 μL of culture medium was taken from each well, transferred to the corresponding well of a 96-well black plate, and then subjected to full-wavelength detection using a microplate reader."}, "Human CD73 [1]": {"target": "T1, Human CD73 (Homo sapiens, UniProt P21589)", "T1 sequence (P21589 27-547 limits assumed)": "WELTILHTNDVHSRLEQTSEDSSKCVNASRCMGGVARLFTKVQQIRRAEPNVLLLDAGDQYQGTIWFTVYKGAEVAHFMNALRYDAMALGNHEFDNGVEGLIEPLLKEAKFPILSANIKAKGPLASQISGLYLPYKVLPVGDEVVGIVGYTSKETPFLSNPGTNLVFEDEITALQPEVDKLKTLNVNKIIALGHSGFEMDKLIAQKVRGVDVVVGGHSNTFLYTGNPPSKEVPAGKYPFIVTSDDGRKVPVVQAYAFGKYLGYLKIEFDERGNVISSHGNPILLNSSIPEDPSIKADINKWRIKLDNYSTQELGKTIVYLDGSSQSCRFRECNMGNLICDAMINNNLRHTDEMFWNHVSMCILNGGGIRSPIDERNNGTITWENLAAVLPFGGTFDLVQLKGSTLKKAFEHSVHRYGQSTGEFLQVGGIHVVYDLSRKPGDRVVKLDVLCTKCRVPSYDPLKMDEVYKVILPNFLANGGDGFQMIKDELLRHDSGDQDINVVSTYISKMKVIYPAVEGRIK", "test": "Inhibition of enzymatic activity of soluble recombinant CD73 protein (AMP/ATP, CellTiter-Glo)", "assay_type": "biochemical", "set-up": "purchased ACRO CD3-H52H7-100 μg", "details": "FIG. 3; the three samples compared with each other", "experimental": "The inhibitory effects of the antibody-drug conjugate 1 and the antibody-drug conjugate 2 prepared in Example 1 and the 900698 naked antibody on the enzymatic activity of a recombinant CD73 protein (ACRO, #CD3-H52H7-100 μg) were assayed. The specific procedures were as follows: The series of CD73 antigen-binding proteins were diluted to 120 μg/mL with TM Buffer (ROCKLAND, #MB-059), followed by a 3-fold dilution across 10 gradients. The diluted proteins were each added at 25 µL/well to a 96-well plate. The recombinant CD73 protein was then diluted to 0.3 μg/mL with TM Buffer (ROCKLAND, #MB-059) and added at 25 μL/well to the 96-well plate. The mixture was mixed uniformly. Then, diluted AMP and ATP were mixed at a ratio of 1:1, and the mixture was added at 50 μL/well to the above 96-well plate. The resulting mixture was allowed to react for 15 min. Finally, a CellTiter-Glo® substrate was added to a CellTiter-Glo® buffer. The mixture was mixed uniformly and equilibrated to room temperature, and then added at 100 μL/well to the wells to be tested. The resulting mixture was allowed to react at room temperature for 10 min and then subjected to full-wavelength detection.\nThe results for the inhibition of the enzymatic activity of the soluble recombinant CD73 antigen protein (ACRO, #CD3-H52H7-100 μg) by the antibody-drug conjugate 1, the antibody-drug conjugate 2, and the 900698 naked antibody are shown in FIG. 3 (represented as 1-3 in FIG. 3, respectively)."}, "Human CD73 [2]": {"target": "T1, Human CD73", "test": "Biacore binding kinetics with human CD73 protein", "set-up": "purchased ACRO Biosystems CD3-H52H7", "details": "Human CD73, Biacore T200, protein A chip, 25° C., 1:1 binding model", "experimental": "(§1) The binding kinetics of the antibody-drug conjugate 1 and the antibody-drug conjugate 2 prepared in Example 1 and the 900698 naked antibody with a human CD73 protein (manufacturer: ACRO Biosystems, Cat. No. CD3-H52H7) and a monkey CD73 protein (manufacturer: Novoprotein, Cat. No. CI21) were assayed using Biacore (GE, model: T200), with an assay buffer of HBS-EP+ (pH 7.4) and a protein A chip (manufacturer: GE, Cat. No. 29-1275-56).\n(§2) The temperature for the sample compartment and the flow path was set to 25° C. The protein A chip captured each antigen-binding protein as a ligand, fixing about 100 RU. The human CD73 protein was diluted with the assay buffer to a series of concentrations of 50 nM, 25 nM, 12.5 nM, 6.25 nM, 3.12 nM, and 1.57 nM, serving as analytes, and the assay buffer was used as a 0 concentration control. At a flow rate of 30 μL/min, association was conducted for 120 s, and dissociation was conducted for 600 s. Glycine (10 mM, pH 1.5) was used for regeneration at a flow rate of 50 μL/min for 60 s in a multi-cycle kinetic assay. A 1:1 binding model was used, and the Fit Local mode was selected to determine the association rate constant (ka), dissociation rate constant (kd), and equilibrium dissociation constant (KD)."}, "Monkey CD73": {"system": "Monkey CD73", "test": "Biacore binding kinetics with monkey CD73 protein", "details": "Monkey CD73, Biacore T200, protein A chip, 25° C., 1:1 binding model", "experimental": "as §1, §2"}}, "data": [{"molecule": "B1", "values": [{"measurement": "killing effect on MCF-7 cells", "setting": "MCF-7 cells", "value": "no killing effect"}, {"measurement": "inhibitory effect on the enzymatic activity of the soluble recombinant CD73 protein", "setting": "Human CD73 [1]", "value": "comparable inhibitory effects"}, {"measurement": "ka", "setting": "Human CD73 [2]", "value": 381000, "unit": "M⁻¹ s⁻¹"}, {"measurement": "kd", "setting": "Human CD73 [2]", "value": 0.000129, "unit": "s⁻¹"}, {"measurement": "ka", "setting": "Monkey CD73", "value": 55000, "unit": "M⁻¹ s⁻¹"}, {"measurement": "kd", "setting": "Monkey CD73", "value": "1.92e-06", "unit": "s⁻¹"}]}, {"molecule": "B2", "values": [{"measurement": "killing effect on MCF-7 cells", "setting": "MCF-7 cells", "value": "no killing effect"}, {"measurement": "inhibitory effect on the enzymatic activity of the soluble recombinant CD73 protein", "setting": "Human CD73 [1]", "value": "comparable inhibitory effects"}, {"measurement": "ka", "setting": "Human CD73 [2]", "value": 147000, "unit": "M⁻¹ s⁻¹"}, {"measurement": "kd", "setting": "Human CD73 [2]", "value": 0.000104, "unit": "s⁻¹"}, {"measurement": "ka", "setting": "Monkey CD73", "value": 148000, "unit": "M⁻¹ s⁻¹"}, {"measurement": "kd", "setting": "Monkey CD73", "value": "1.8e-05", "unit": "s⁻¹"}]}, {"molecule": "B3", "values": [{"measurement": "killing effect on MCF-7 cells", "setting": "MCF-7 cells", "value": "no killing effect"}, {"measurement": "inhibitory effect on the enzymatic activity of the soluble recombinant CD73 protein", "setting": "Human CD73 [1]", "value": "comparable inhibitory effects"}, {"measurement": "ka", "setting": "Human CD73 [2]", "value": 643000, "unit": "M⁻¹ s⁻¹"}, {"measurement": "kd", "setting": "Human CD73 [2]", "value": 0.000228, "unit": "s⁻¹"}, {"measurement": "ka", "setting": "Monkey CD73", "value": 454000, "unit": "M⁻¹ s⁻¹"}, {"measurement": "kd", "setting": "Monkey CD73", "value": 0.000114, "unit": "s⁻¹"}]}]}
